According to article PMC3839042:

How the values were obtained:
human S100A2 (human) = human S100A2 (human) (UniProt P29034); assay: ITC
human S100B (human) = human S100B (human) (UniProt P04271); assay: ITC
Chain of human S100B (human) (P04271 whole entry): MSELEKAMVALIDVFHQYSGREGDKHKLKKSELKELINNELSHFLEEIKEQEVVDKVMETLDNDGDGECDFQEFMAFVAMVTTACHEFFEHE

Chain of human S100A2 (human) (P29034 whole entry): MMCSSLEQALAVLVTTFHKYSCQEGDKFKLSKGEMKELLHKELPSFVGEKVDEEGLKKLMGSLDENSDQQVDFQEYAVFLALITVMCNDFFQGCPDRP

Question: What does the source list for TRTK12 wild-type peptide (Ac-…-NH2)?
Answer: stoichiometry N (peptides per S100A2 dimer) (human S100A2 (human)): 2; stoichiometry N (peptides per S100B dimer) (human S100B (human)): 2
